Source: US20180105835, “TARGETED RNA KNOCKDOWN AND KNOCKOUT BY TYPE III-A Csm COMPLEXES” (VILNIUS UNIVERSITY, published 2018)

Target: StCsm effector complex (Cas10-Csm2-Csm3-Csm4-Csm5, StCsm-40), wild type (Streptococcus thermophilus DGCC8004, UniProt A0A0A7HFE1;A0ABF7SXA0;A0A0A7HIF0;A0ABF7SXA2;A0ABF7SXA3 …)
Assay: EMSA; gel shift, StCsm-40; value only in figure
Conditions: tags: N-terminal StrepII on Csm2; chain copies: Cas10:1 Csm2:3 Csm3:5 Csm4:1 Csm5:1 (stated); label: 5'-33P
Description: FIGS. 16A-B show in vitro cleavage activity of the StCsm targeted to the GFP transcript. Schematic representation of StCsm bound to the target RNA used for in vitro binding and cleavage assays is presented above the gels. RNA was 5′-end labeled with ³³P as indicated with asterisk. (FIG. 16A) Gel shift assay of RNA binding by StCsm-40. The binding reactions contained the ³³P-labeled GFP RNA (0.5 nM) and StCsm-40 at concentrations indicated by each lane. Samples were analyzed by PAGE under non-denaturating conditions. (FIG. 16B) StCsm-40 cleavage assay. Cleavage reactions were performed at 25° C. for indicated time intervals in the Reaction buffer supplemented with 10 mM Mg-acetate, 8 nM GFP RNA substrate and 160 nM StCsm-40. Samples were analyzed by denaturing PAGE, followed by phosphorimaging. […]
Binding assays were performed by incubating different amounts of Csm complexes with 0.5 nM of ³²P-5′-labeled NA in the Binding buffer (40 mM Tris, 20 mM acetic acid (pH 8.4 at 25° C.), 1 mM EDTA, 0.1 mg/ml BSA, 10% (v/v) glycerol). […] The Kd for NA binding by Csm-72 and Csm-40 was evaluated assuming the complex concentration at which half of the substrate is bound as a rough estimate of Kd value. For binding competition assay 0.5 nM ³²P-labelled S3/1 RNA was mixed with 0.5-5000 nM of unlabelled competitor NA and 0.3 nM StCsm-40, and analyzed by EMSA.

B1: jGFP crRNA 40 nt ; jGFP target RNA (coding-strand DNA sequence printed) (ssRNA ; ssRNA)
RNA 1: ACGGAAACAUAACCUUCGGGCAUGGCACUCUUGAAAAAGU
RNA 2: CAUGACUUUUUCAAGAGUGCCAUGCCCGAAGGUUAU
  binding result: binds
